# In publication PMC3983370:
# Biological target: HCoV-OC43 nucleocapsid (N) protein WT (Human coronavirus OC43, UniProt P33469 1-448)
# Assay: SPR
# Chain of HCoV-OC43 nucleocapsid (N) protein WT (P33469 whole entry): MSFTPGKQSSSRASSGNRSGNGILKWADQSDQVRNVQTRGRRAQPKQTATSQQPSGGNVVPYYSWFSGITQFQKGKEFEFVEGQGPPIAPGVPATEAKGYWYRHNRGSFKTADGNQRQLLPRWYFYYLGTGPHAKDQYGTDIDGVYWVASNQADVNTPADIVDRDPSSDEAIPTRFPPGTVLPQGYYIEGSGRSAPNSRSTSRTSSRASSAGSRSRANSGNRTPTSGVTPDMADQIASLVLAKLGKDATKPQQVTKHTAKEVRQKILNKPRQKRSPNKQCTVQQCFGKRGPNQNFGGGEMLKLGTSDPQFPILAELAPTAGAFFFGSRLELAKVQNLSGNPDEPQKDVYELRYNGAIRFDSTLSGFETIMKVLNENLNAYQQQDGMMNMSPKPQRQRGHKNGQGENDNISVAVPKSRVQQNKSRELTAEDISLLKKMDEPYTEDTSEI
binder,measurement,value
UCUAAACUCUAAACUCUAAACUCUAAAC (ssRNA) [(UCUAAAC)4 repeated intergenic sequence],Kd,11.7 ± 0.8 nM
